In patent US20170355769A1 (AbbVie / Abbott, published 2017) one finds EC50 and Kd data, which are given here for 20 molecules.

Substitutions are numbered along the chain they refer to.

First the molecules themselves.
T1: Human full length B7-H3 (human, UniProt Q5ZPR3 29-534)
T1 construct: On 3T12 fibroblasts expressing full length human B7-H3 or on NCI-H1650 cells; signal peptide residues 1-28 stated; also called huB7-H3; CD276
T1 sequence: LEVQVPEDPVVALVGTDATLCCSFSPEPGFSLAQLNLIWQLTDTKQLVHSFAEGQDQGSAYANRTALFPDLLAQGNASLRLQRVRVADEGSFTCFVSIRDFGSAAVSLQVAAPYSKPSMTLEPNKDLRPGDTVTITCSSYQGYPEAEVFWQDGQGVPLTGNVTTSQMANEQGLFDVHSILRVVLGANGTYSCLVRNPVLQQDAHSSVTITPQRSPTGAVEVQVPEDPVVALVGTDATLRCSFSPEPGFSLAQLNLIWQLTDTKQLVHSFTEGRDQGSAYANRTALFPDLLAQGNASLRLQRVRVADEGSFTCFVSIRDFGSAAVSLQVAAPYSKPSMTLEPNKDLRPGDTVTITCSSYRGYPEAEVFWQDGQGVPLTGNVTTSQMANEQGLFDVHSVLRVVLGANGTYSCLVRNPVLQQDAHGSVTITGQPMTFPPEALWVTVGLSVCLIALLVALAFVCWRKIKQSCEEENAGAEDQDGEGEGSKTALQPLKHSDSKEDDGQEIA

T2: Human B7-H3-ECD (His tag) (human, UniProt Q5ZPR3 29-461)
T2 construct: SPR analyte; also called huB7-H3; soluble ECD of human B7-H3
T2 sequence: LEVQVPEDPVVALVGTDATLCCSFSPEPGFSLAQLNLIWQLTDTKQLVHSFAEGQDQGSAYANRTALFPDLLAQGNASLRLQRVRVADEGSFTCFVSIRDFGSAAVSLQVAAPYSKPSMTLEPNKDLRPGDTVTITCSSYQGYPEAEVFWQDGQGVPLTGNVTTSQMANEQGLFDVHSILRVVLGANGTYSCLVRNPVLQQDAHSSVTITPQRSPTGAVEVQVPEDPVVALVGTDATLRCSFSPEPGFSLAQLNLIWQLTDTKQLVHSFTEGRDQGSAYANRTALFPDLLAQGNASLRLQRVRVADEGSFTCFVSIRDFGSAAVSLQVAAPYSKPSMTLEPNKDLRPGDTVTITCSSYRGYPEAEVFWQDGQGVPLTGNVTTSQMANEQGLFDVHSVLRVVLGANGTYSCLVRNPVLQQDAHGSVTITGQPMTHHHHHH

B1: chAb2 (antibody, IgG1, V domains shown)
VH: QVQLQQPGAELVKPGASVKLSCKASGYTFTSYWMHWVKQRPGQGLEWIGMIHPDSGTTNYNEKFRSKATLTVDKSSSTAYMQLSSLTSEDSAVYYCAVYYGSTYWYFDVWGTGTTVTVSS
VL: DVVMTQTPLSLPVSLGDQAYISCRSSQSLVHINGNTYLHWYRQKPGQSPKLLIYKVSNRFSGVPDRFSGSGSGTDFTLKISRVEAEDLGVYFCSQSTHFPFTFGSGTKLEIK
notes: chimeric, huIgG1/k
B2: chAb14 (antibody, IgG1, V domains shown)
VH: EVKLVESGGGLVKPGGSLKLSCAASGFTFSSYGMSWVRQTPEKRLEWVATISGGGTNTYYPDSVEGRFTISRDNAKNFLYLQMSSLRSEDTALYYCARHYGSQTMDYWGQGTSVTVSS
VL: DIQMTQSPASLSASVGETVTITCRTSGNIHNYLTWYQQKQGKSPQLLVYNAKTLADGVPSRFSGSGSGTQFSLKINSLQPEDFGSYYCQHFWSIMWTFGGGTKLEIK
notes: chimeric, huIgG1/k
B3: chAb6 (antibody, IgG1, V domains shown)
VH: QVQLQQSGAELMKPGASVKISCKATGYTFSRYWIEWVKQRPGHGLEWIGEILPGSGSTNYNEKFKGKATFTADTSSNTAYMQVSSLTSEDSAVHYCARRGYGYVPYALDYWGQGTSVTVSS
VL: EIQMTQTTSSLSASLGDRVTISCRASQDISNSLNWYQQKPDGTVNLLIYYTSRLYSGVPSRFSGSGSGTDYSLTISNLEQEDIATYFCQQGNTLPYTFGGGTKLEIK
notes: chimeric, huIgG1/k
B4: chAb16 (antibody, IgG1, V domains shown)
VH: EVKLLESGGGLVQPGGSLKLSCAASGFDFSRYWMSWVRQAPGKGLEWIGEINPDSSTINYTPSLKDKFIISRDNAKNTLYLQMSKVRSEDTALYYCARPGFGNYIYAMDYWGQGTSVTVSS
VL: B3 VL with E1D, S22N, S32F, N45K, S56L, Y96P
notes: chimeric, huIgG1/k
B5: chAb4 (antibody, IgG1, V domains shown)
VH: QVQLQQPGAELVKPGASVKLSCKASGYSFTSYWMHWVKQRPGQGLEWIGMIHPNSGSNNYNEKFKSKATLTVDKSSNTAYMQLSSLTSEDSAVYYCARRLGLHFDYWGQGTTLTVSS
VL: DIVMTQSQKFMSTPVGDRVSITCKASQNVGTAVAWYQQKPGQSPKLLIYSASNRYTGVPDRFTGSGSGTDFTLTISNMQSEDLADYFCQQYSSYPYTFGGGTKLEIK
notes: chimeric, huIgG1/k
B6: chAb11 (antibody, IgG1, V domains shown)
VH: EVKLVESGGGLVQPGGSLRLSCATSGFTFTNYYMSWVRQPPGKALEWLGFIRNKANDYTTEYSASVKGRFTISRDNSQSILYLQMNTLRAEDSATYYCARESPGNPFAYWGQGTLVTVSA
VL: DIVMTQSPSSLTVTAGEKVTMTCKSSQSLLNSGTQKNFLTWYQQKPGQPPKLLIYWASTRESGVPDRFTGSGSGTDFTLTISSVQAEDLAVYFCQNDYIYPLTFGAGTKLELK
notes: chimeric, huIgG1/k
B7: huAb18v2 (antibody, V domains shown)
VH: EVQLVQSGAEVKKPGSSVKVSCKASGYSFTSYTIHWVRQAPGQGLEWMGYINPNSRNTDYAQKFQGRVTLTADKSTSTAYMELSSLRSEDTAVYYCARYSGSTPYWYFDVWGQGTTVTVSS
VL: DIQLTQSPSFLSASVGDRVTITCRASSSVSYMNWYQQKPGKAPKLLIYATSNLASGVPSRFSGSGSGTEFTLTISSLQPEDFATYYCQQWSSNPLTFGQGTKLEIK
notes: humanized IgG
B8: huAb18v10 (antibody, V domains shown)
VH: B7 VH
VL: B7 VL with L45P, L46W, G63V, F70H
notes: humanized IgG
B9: huAb18v6 (antibody, V domains shown)
VH: B7 VH
VL: EIVLTQSPDFQSVTPKEKVTITCRASSSVSYMNWYQQKPDQSPKLLIKATSNLASGVPSRFSGSGSGTDFTLTINSLEAEDAATYYCQQWSSNPLTFGQGTKLEIK
notes: humanized IgG
B10: huAb18v7 (antibody, V domains shown)
VH: B7 VH
VL: B9 VL with L45P, L46W, K48Y, G63V, G65V, F70H
notes: humanized IgG
B11: huAb18v5 (antibody, V domains shown)
VH: B7 VH with A61N, Q65K, G66D, L70I
VL: B9 VL
notes: humanized IgG
B12: huAb18v3 (antibody, V domains shown)
VH: B7 VH with M48I, A61N, Q65K, G66D, V68T, K74R
VL: B7 VL with A42S, L45P, L46W, G63V, G65V, F70H
notes: humanized IgG
B13: huAb18v9 (antibody, V domains shown)
VH: B7 VH with M48I, A61N, Q65K, G66D, V68T, K74R
VL: B9 VL with L45P, L46W, K48Y, G63V, G65V, F70H
notes: humanized IgG
B14: huAb18v4 (antibody, V domains shown)
VH: B7 VH
VL: B7 VL with A42S, L45P, L46W, G63V, G65V, F70H
notes: humanized IgG
B15: huAb18v1 (antibody, V domains shown)
VH: B7 VH with A61N, Q65K, G66D, L70I
VL: B7 VL
notes: humanized IgG
B16: huAb18v8 (antibody, V domains shown)
VH: B7 VH with M48I, A61N, Q65K, G66D, V68T, K74R
VL: B7 VL with L45P, L46W, G63V, F70H
notes: humanized IgG
B17: huAb18v6-CZ (antibody, V domains shown)
VH: B7 VH
VL: B9 VL
modifications: synthon CZ on reduced interchain Cys
notes: ADC, DAR 3.4
B18: huAb18v7-CZ (antibody, V domains shown)
VH: B7 VH
VL: B9 VL with L45P, L46W, K48Y, G63V, G65V, F70H
modifications: synthon CZ on reduced interchain Cys
notes: ADC, DAR 4.3
B19: huAb18v9-CZ (antibody, V domains shown)
VH: B7 VH with M48I, A61N, Q65K, G66D, V68T, K74R
VL: B9 VL with L45P, L46W, K48Y, G63V, G65V, F70H
modifications: synthon CZ on reduced interchain Cys
notes: ADC, DAR 2.4
B20: huAb18v5-CZ (antibody, V domains shown)
VH: B7 VH with A61N, Q65K, G66D, L70I
VL: B9 VL
modifications: synthon CZ on reduced interchain Cys
notes: ADC, DAR 3.4

The target of the first assay is T1, Human full length B7-H3. Kind of assay: FACS, NCI-H1650 cells. Here is the method: To generate purified chimeric antibodies, expression vectors were transiently transfected into HEK293 6E suspension cell cultures in a ratio of 60% to 40% light to heavy chain construct. 1 mg/ml of polyethylenimine (PEI) or 2.6 μL/mL of Expifectamine was used to transfect the cells. Cell supernatants were harvested after five days in shaking flasks, spun down to pellet cells, and filtered through 0.22 μm filters to separate IgG from culture contaminants. Antibody-containing supernatants were purified on Akta Pure using protein A mAb SelectSure. Columns were equilibrated in PBS pH 7.4, supernatants were then passed through the column and a wash was performed with PBS pH 7.4. IgG were eluted with 0.1 M acetic acid pH 3.5 and collected in several aliquots. Fractions containing IgG were pooled and dialyzed in PBS overnight at 4° C.
(§1) Cells were harvested from flasks when approximately 80% confluent using Gibco® Cell Dissociation Buffer. Cells were washed once in PBS/1% FBS (FACS buffer) then resuspended at 2.5×10⁶ cells/mL in FACS buffer. 100 μL of cells/well were added to a round bottom 96-well plate. 10 μL of a 10× concentration of mAb/ADC (final concentrations are indicated the figures). Wells were washed twice with FACS buffer and resuspended in 50 μL of secondary Ab (AlexaFluor 488) diluted in FACS buffer. The plate was incubated at 4° C. for one hour and washed twice with FACS buffer. Cells were resuspended in 100 μL of PBS/1% formaldehyde and analyzed on a Becton Dickinson LSRII flow cytometer. Data was analyzed using WinList flow cytometry analysis software.
What is called EC50 is the midpoint of the concentration-response curve. Low values mean a more potent agent, high ones a less potent agent. Regarding B1, the EC50 turned out to be 0.1 nM.

In turn, B2 displayed an EC50 of 0.81 nM.

In turn, B3 showed a concentration for a half-maximal effect (EC50) of 0.33 nM.

Regarding B4, the EC50 was 0.27 nM.

B5 yielded an EC50 of 0.56 nM.

B6 had an EC50 of 1.12 nM.

A further assay has as its target T2, Human B7-H3-ECD (His tag). Kind of assay: SPR Biacore, naked mAb. From the text:
Biacore T200 SPR instruments were used to measure the binding kinetics of human B7-H3 (analyte) binding to various mAbs (ligands). The assay format was Fc-based capture via immobilized anti-mouse (Fc) (Pierce 31170) or immobilized anti-human (Fc) (Pierce 31125). A standard amine coupling protocol was employed to immobilize the capture reagents via primary amines to the carboxy-methyl (CM) dextran surface of CM5 sensorchips (Biacore); capture antibodies were coupled to a level of approximately 5000RU. For binding kinetic measurements the assay buffer was HBS-EP+ (Biacore): 10 mM Hepes, pH7.4, 150 mM NaCl, 3 mM EDTA, 0.05% polysorbate 20. During the assay, all measurements were referenced against the capture surface alone. Each assay cycle consisted of the following steps: 1) Capture of ligand to approximately 50RU; 2) Analyte injection over both reference and test surface, 240 μL at 80 μL/min, after which the dissociation was monitored for 900 seconds at 80 μL/min; 3) Regeneration of capture surface with low pH glycine. […] Data were processed and fit to a 1:1 binding model using Biacore T200 Evaluation Software to determine the binding kinetic rate constants, kₐ (on-rate) and kd (off-rate), and the equilibrium dissociation constant (affinity, KD).
(§2) The parental chAb18 from which the variants were derived was also tested as a comparator.
Usually Kd stands for a measure of binding affinity in units of concentration. B7 came in with a Kd of 0.69 nM.

The molecule B8 displayed a dissociation constant (Kd) of 0.25 nM.

In the case of B9, the Kd is 0.2 nM.

The molecule B10 displayed a Kd of 0.4 nM.

Turning to B11, the Kd is 0.23 nM.

B12 displayed a Kd of 0.23 nM.

Regarding B13, the affinity, expressed as Kd, was 0.38 nM.

Turning to B14, the Kd was determined as 0.57 nM.

B15 showed a dissociation constant (Kd) of 0.52 nM.

B16: the Kd worked out at 0.25 nM.

Another assay has as its target T1, Human full length B7-H3. The assay can be described thus: FACS (Example 6 method). Here is the method:
as §1, §2
Take B17: a half-maximal effect (EC50) was put at 2.09 nM.

B18 returned an EC50 of 1.92 nM.

With B19, the EC50 was determined as 1.58 nM.

B20 displayed an EC50 of 2.91 nM.
